Results taken from patent publication US20100278801A1 (published 2010).
Values belong to the binder of their own block, whether it stands above or below them.

Tests used:
HER3:Fc mutant S438T = biological target: T1, HER3:Fc mutant S438T (human, UniProt P21860 20-643); test: HER3:Fc mutant ligand binding screen
T1 construct: extracellular domain

HER3:Fc mutant N103K = biological target: T2, HER3:Fc mutant N103K (human, UniProt P21860 20-643); test: HER3:Fc mutant ligand binding screen
T2 construct: extracellular domain

HER3Y246A:Fc = biological target: T3, HER3Y246A:Fc (human, UniProt P21860 20-643); test: HER3:Fc mutant ligand binding screen
T3 construct: extracellular domain; Screened as an Fc fusion homodimer in conditioned medium

HER3:Fc mutant A439D = biological target: T4, HER3:Fc mutant A439D (human, UniProt P21860 20-643); test: HER3:Fc mutant ligand binding screen
T4 construct: extracellular domain

HER3:Fc mutant D343I = biological target: T5, HER3:Fc mutant D343I (human, UniProt P21860 20-643); test: HER3:Fc mutant ligand binding screen
T5 construct: extracellular domain

HER3:Fc mutant L48Y = biological target: T6, HER3:Fc mutant L48Y (human, UniProt P21860 20-643); test: HER3:Fc mutant ligand binding screen
T6 construct: extracellular domain

HER3:Fc mutant H565E = biological target: T7, HER3:Fc mutant H565E (human, UniProt P21860 20-643); test: HER3:Fc mutant ligand binding screen
T7 construct: extracellular domain

HER3:Fc mutant L102S = biological target: T8, HER3:Fc mutant L102S (human, UniProt P21860 20-643); test: HER3:Fc mutant ligand binding screen
T8 construct: extracellular domain

HER3:Fc mutant D325N = biological target: T9, HER3:Fc mutant D325N (human, UniProt P21860 20-643); test: HER3:Fc mutant ligand binding screen
T9 construct: extracellular domain

HER3:Fc mutant C481R = biological target: T10, HER3:Fc mutant C481R (human, UniProt P21860 20-643); test: HER3:Fc mutant ligand binding screen
T10 construct: extracellular domain

HER3:Fc mutant Y436L = biological target: T11, HER3:Fc mutant Y436L (human, UniProt P21860 20-643); test: HER3:Fc mutant ligand binding screen
T11 construct: extracellular domain

HER3:Fc mutant K415S = biological target: T12, HER3:Fc mutant K415S (human, UniProt P21860 20-643); test: HER3:Fc mutant ligand binding screen
T12 construct: extracellular domain

HER3:Fc mutant V19Q = biological target: T13, HER3:Fc mutant V19Q (human, UniProt P21860 20-643); test: HER3:Fc mutant ligand binding screen
T13 construct: extracellular domain

HER3:Fc mutant F96L = biological target: T14, HER3:Fc mutant F96L (human, UniProt P21860 20-643); test: HER3:Fc mutant ligand binding screen
T14 construct: extracellular domain

HER3:Fc mutant G563Q = biological target: T15, HER3:Fc mutant G563Q (human, UniProt P21860 20-643); test: HER3:Fc mutant ligand binding screen
T15 construct: extracellular domain

HER3:Fc mutant D343L = biological target: T16, HER3:Fc mutant D343L (human, UniProt P21860 20-643); test: HER3:Fc mutant ligand binding screen
T16 construct: extracellular domain

HER3:Fc mutant D343H = biological target: T17, HER3:Fc mutant D343H (human, UniProt P21860 20-643); test: HER3:Fc mutant ligand binding screen
T17 construct: extracellular domain

HER3:Fc mutant D343F = biological target: T18, HER3:Fc mutant D343F (human, UniProt P21860 20-643); test: HER3:Fc mutant ligand binding screen
T18 construct: extracellular domain

HER3:Fc mutant S18T = biological target: T19, HER3:Fc mutant S18T (human, UniProt P21860 20-643); test: HER3:Fc mutant ligand binding screen
T19 construct: extracellular domain

RB200 [1] = biological target: T20, RB200 (human, UniProt P00533 25-645; P21860 20-643); test: Eu-NRG1-β saturation binding (DELFIA), purified heterodimer immobilised on anti-human Fc plate
T20 construct: extracellular domain; Purified over Ni-Sepharose, so a His tag is likely on one chain, but none is described; also called parent heterodimer RB200; EGFR/HER3 heterodimer
Protocol: (§1) Plates were incubated at RT for 2 hrs and then rinsed 3 times with DELFIA wash buffer. […] The plates were incubated at RT for 2 hrs followed by three quick rinse with ice-cold Delfia wash buffer containing0.02% Tween-20. To quantify bound Eu-ligands 130 μl/well of Delfia enhancement solution was added and the plates were read on a fluorescence plate reader (Envision, model 2100, PerkinElmer).

RB200 [2] = biological target: T20, RB200; test: 125I-NRG1-β saturation binding, heterodimer immobilised on anti-Fc coated plate
RB200 [3] = biological target: T20, RB200; test: displacement of Eu-EGF from immobilised RB200 by unlabeled HB-EGF
Protocol: as §1

RB242 = biological target: T21, RB242 (human, UniProt P00533 25-645; P21860 20-643); test: displacement of Eu-EGF from immobilised RB242 by unlabeled HB-EGF
T21 construct: extracellular domain; purified to about 95% homogeneity; also called optimized hermodulin variant RB242
Protocol: as §1

binding result (HER3:Fc mutant S438T): no binding | binding result (HER3:Fc mutant N103K): no binding | binding result (HER3Y246A:Fc): binds | binding result (HER3:Fc mutant A439D): no binding | binding result (HER3:Fc mutant D343I): no binding | binding result (HER3:Fc mutant L48Y): no binding | binding result (HER3:Fc mutant H565E): no binding | binding result (HER3:Fc mutant L102S): no binding | binding result (HER3:Fc mutant D325N): no binding | binding result (HER3:Fc mutant C481R): no binding | binding result (HER3:Fc mutant Y436L): no binding | binding result (HER3:Fc mutant K415S): no binding | binding result (HER3:Fc mutant V19Q): no binding | binding result (HER3:Fc mutant F96L): no binding | binding result (HER3:Fc mutant G563Q): no binding | binding result (HER3:Fc mutant D343L): no binding | binding result (HER3:Fc mutant D343H): no binding | binding result (HER3:Fc mutant D343F): no binding | binding result (HER3:Fc mutant S18T): no binding | Kd (RB200 [1]): 3.1 nM | Kd (RB200 [2]): 12.3 nM
B1: NRG1-β (ligand, UniProt Q02297-6 177-241, looked up)
chain: SHLVKCAEKEKTFCVNGGECFMVKDLSNPSRYLCKCPNEFTGDRCQNYVMASFYKHLGIEFMEAE
notes: also called NRG1β1; NRGβ1

Ki (RB200 [3]): 20.1 nM | Ki (RB242): 1.3 nM
B2: HB-EGF (ligand, UniProt Q99075 63-148, looked up)
chain: DLQEADLDLLRVTLSSKPQALATPNKEEHGKRKKKGKGLGKKRDPCLRKYKDFCIHGECKYVKELRAPSCICHPGYHGERCHGLSL
